Experimental data as given in the supplement of paper PMC9170038.

Test system: K4 kissing-loop RNA reporter
Experiment: apparent KD of K4 kissing-loop reporter; higher = weaker reporter binding
Conditions: Eterna round: R107
Protocol: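 RNA-MaP round R107: designed RNA switches with theophylline, tryptophan, arginine or FMN aptamers are transcribed on-chip within common flanks. They are titrated with a labelled K4 kissing-loop RNA reporter in RNA-MaP buffer (100 mM Tris pH 7.5, 80 mM KCl, 4 mM MgCl2), without ligand or with the indicated ligand. Median apparent KD per design.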

[1] = input ligand: theophylline 20 uM
[2] = input ligand: tryptophan 2.4 mM
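Also: bound reporter read as fluorescence of individual clusters on recovered sequencing chips by microscopy, with normalized cluster intensities fitted with a binding model.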

Sequence	apparent KD of K4 kissing-loop reporter (input ligand: FMN 200 uM)	apparent KD of K4 kissing-loop reporter (input ligand: arginine 13.2 mM)	apparent KD of K4 kissing-loop reporter (input ligand: none)	apparent KD of K4 kissing-loop reporter [1]	apparent KD of K4 kissing-loop reporter [2]
ACAGUAGUGAUGUCUUUGAUAUUACUACUGCGAGGACCGGUACGGCCGCCACUCGCCCAUUUUUGGGUUGAGAGUGAUGUUCUCA [Skye_SS_TA2]	594 nM	345 nM	474 nM	482 nM	588 nM
UUCAGGUGUUCGGCCGCCACUCCAGUGAUGUUGGAGUGGCUUCACAAGGGCCAGGACAAUGUAAGGAGGACCGGGAAUAUCUCAG [Onisle]	97.9 nM	96.1 nM	132 nM	77.3 nM	111 nM
GGCGCUGCCUGUGCCGCCCUCCUCGUCCCUCGAGGACCGGUACGGCCGCCACUCGAGUGAUGUUCGGGUAGCCCUCCCUGCCAGC [BDazzled - #23 Exc. Tryptophan A]	585 nM	407 nM	567 nM	511 nM	340 nM
CAUUCUAAAUGCAGUGAUGUUGCAACUGAUACCAGUAUCGAAAGAUACCCUUGGCAGCGGAAAACCGCUACGUUUUUUUAGAAUG [Ex Theophylline A K4 23]	264 nM	369 nM	352 nM	438 nM	243 nM
AGAAGGUCAAAGACCUUCGUGCACACUGAUACCAGUCGCGAAAGCGACCCUUGGCAGCAGGGCAGUGAUGUUGCCAAGUGCACAA [Omei KL Theo A SS A v2]	252 nM	278 nM	267 nM	136 nM	235 nM
GCCGUAGAUGGAAGGAGCGUGGUUAAUGUAAGUGAUGUUUACGAGGUUAACAAUUAACCGCCACAGGUAGGUCGCCAUCUACGGC	72.8 nM	62.8 nM	77.5 nM	58.6 nM	73.8 nM
ACGUAGUUCUAGGAUACCAGCCAAAUAGCCAGGACGAGAGUCCUGGCUGCCAGUGAUGUUGGCCCUUGGCAGCCUAGAACUACGA [Theo B Ex Mod Omei v10]	166 nM	134 nM	138 nM	233 nM	146 nM
AAACAUCACUGGGAGUGAUGUUCUCAGUGACGAGGACCGGUACGGCCGCCACUCGCGAGAGAUAUAGUCUAGUAUUGACUGCAUU [Excl Tryptophan A V11]	242 nM	244 nM	231 nM	339 nM	348 nM
UUGUUUUACUGAAGGAGCGGCAAUUGAUACGUAGAUAUAGUGAUGUUAUAUAAGAUAGAGAGCCAGGUAGGUCGCAGAGGUGUUU [ExArgB.S]	176 nM	150 nM	210 nM	180 nM	168 nM
UAUAUACAUAGAUAGUUGUAUAUCGAGGAAGGAGCGUGCGCAGGCACAGGUAGGUCGCCUCAGCGCACGAGUGAUGUUCGUGGGC [Tezale]	247 nM	168 nM	267 nM	241 nM	246 nM
AAGGUAUCUAGAUACAUUACUGAACUAGAUACCAGCAUCGAAAGAUGCCCUUGGCAGCUAGCAGUGAUGUUGCUAGCAAUAAGAA [Design3]	121 nM	109 nM	113 nM	112 nM	119 nM
GUUAAGUCGCGAAGGAGCGCGAACUAACAACGCAGUGAUGUUGCGUUGUACGUAGUAUAAUCGCAGGUAGGUCGCGCGACAGGCC [Arg B SS t16]	116 nM	85.5 nM	98.4 nM	81 nM	92.3 nM
GCGCGGCAGGCGGCCGCCACUCUGACGAGCCACAGUGAUGUUGUGGUCGGAGUAACGUCUUCAUAGAGGACCGGGUUUGUUGUUC [Same State Typtophan A GF 26]	224 nM	212 nM	239 nM	290 nM	230 nM
UGUUAUGUAUCAGGAUAUUAGUGAUGUUUGUUUAUGUUAGUGAUGUUGAUAUUUGUUUUAUGUAUUUAAGAAGGGAUUGUGAUGU [xexxmullin]	74.1 nM	23.1 nM	55.4 nM	35.9 nM	57.8 nM
UAGCGUAUUGAAGGAUAUUGCCUAGGAGUGAUGUUUGUAGAAAAUUUCCAACGGAACGAAUGUUAGCAAGAAGGUCAAUGGCCUU [theeternabot_exclusion_KL_FMN_B_40]	230 nM	239 nM	404 nM	456 nM	281 nM
GCGCGUCAUGUCAGCGGUGACUAUGUCGAUACCAGCGCCGCAAGGCGCCCUUGGCAGCGACGCGCUGGAGUGAUGUUCCAGCGUG [#2 Exclusion - Theophylline A Attempt #10 (HarryS)]	148 nM	118 nM	140 nM	144 nM	124 nM

Sequence	apparent KD of K4 kissing-loop reporter (input ligand: FMN 200 uM)	apparent KD of K4 kissing-loop reporter (input ligand: arginine 13.2 mM)	apparent KD of K4 kissing-loop reporter (input ligand: none)	apparent KD of K4 kissing-loop reporter [1]	apparent KD of K4 kissing-loop reporter [2]
GUAUGUGGAAACACGUACUUAUAUCCUAGGCAGGAUAUGCGGAAACGCAGAAGGGCCACCGGCGAGAAAAUCCAGUGAUGUUGGA [Ex FMN A 7]	260 nM	248 nM	244 nM	238 nM	249 nM
GUGAAGGAGCUGCAGUGAUGUUGCAGAGACUAGGAUAUCAGGAAACUGAGAAGGAGUCAACUCCUUCACCUAGACUGCAACAUAA [[F]''-[K1]-[K2]-[F1]-[F2]-[F2]'-[F1]'-[K]'_Design3]	99.6 nM	69.7 nM	67.7 nM	75.7 nM	134 nM
CUUGUACAAGUGAUGUUUGUUAUAUCCGAAGGAGCGUCGUAAUAGACAGGUAGGUCGCGGAGUUAGCUGGUUUUUUUAACAGCUA [JR_Nu_SSArginiA_Sub030]	621 nM	421 nM	679 nM	472 nM	584 nM
UGAUACCAGACGGCCGCCACUGCGCCAGUCAAUGACUGAGCGCGGUGGCGCUCAGUGAUGUUGAGCAGGACCGGGUCUGGUAUCU [Mod of Eli's TrypBX 8 v5]	149 nM	126 nM	146 nM	144 nM	147 nM
UGCUCACAUAGAGGAUAUCUCAUAUGAGACAGUGAUGUUGUCUCAUAUAGACAUGUAAGUCUCAUGAGAGAAGGCUGUGUGAGCA [FMN B SS t8]	140 nM	106 nM	117 nM	99.3 nM	113 nM
CUACGUCGAGCGGCCGCCACUAUGGGUUGCCAAGUAGUGAUGUUACUGAGCUUUUAAUGAUCCUUUAGGACCGGGCUUUGGGAGG [theeternabot_sameState_KL_Trp_B_46]	281 nM	203 nM	227 nM	269 nM	174 nM
CGCAGUGAUGUUGCGAAUAUAAUGCAUUCAGAGGAUAUUCGUUUGGGAAGAAGGCUGAAUCGUUCUUCGAGUGAUGUUCGAGGAA [Same State FMN A GF 17]	141 nM	133 nM	154 nM	136 nM	132 nM
AUAUAGUGAUGUUAUAUAAUAAUCUCUGAUACCAGUCAUUUAGAAGACCCUUGGCAGCAGCUAUAUAUAGGGAAACAAUACAUAA [AstrosExytheA#1]	739 nM	649 nM	709 nM	925 nM	491 nM
GGUAUCUAUACAGAUACCAGUCGUACAGCACCAUUACAGGUUAGUGAUGUUAACCUGUACGACCCUUGGCAGCUGUAUAAUAAUA [Theo B Ex t2a]	105 nM	85.4 nM	96.8 nM	121 nM	87.9 nM
UCGACAGUGAACGAUACCAGCGUCACGUGGCUGGUGGUCACAUGAGUGAUGUUCAUGUAACGCCCUUGGCAGCGUGCACGUAUCC [KL-XTheo-B9]	234 nM	206 nM	220 nM	199 nM	199 nM
AUCGUUGUCUGAGGAUAUCGAUUAACUGUAGUGAUGUUACAGAAAAUUCAUAUAAUAUUUUCUAUUCGAGAAGGCAGACUACGUA [JR_ExcFMNB_Sub017]	167 nM	135 nM	144 nM	139 nM	144 nM
UGACAUUGCUCAGAUACCAGACUUGAGGAACACCCAAGUGCCAAAACGUACUAAAUAAAAGUCCCUUGGCAGCUGAGCAAUGUCU [TheoBX 13]	91.5 nM	30.6 nM	46.2 nM	60.9 nM	59.4 nM
CUACGACAGGAAGGAUAUCGUGUGGAGAGCAGUUAUUUAAAGGUAGUGAUGUUACAGGAGACUGUUCGAGAAGGUCCUCAGUUAC [theeternabot_exclusion_KL_FMN_B_32]	104 nM	98.6 nM	119 nM	93.3 nM	103 nM
CACGAUGAAUUCUCUAGGAGUGAUGUUUUUCGAGGACCGGUACGGCCGCCACUCGGACGACGAGCGUGGUAGCGGGCUGAAGACU [iuullin]	521 nM	205 nM	1120 nM	674 nM	771 nM
ACAAGGGAUCCAGAUACCAGCACUCAAGGAGCUAUAUCAGCGAGUGAUGUUCGUUCAUAGUGCCCUUGGCAGCUGUACUUCCUUG [Essoengeis]	115 nM	107 nM	123 nM	114 nM	110 nM
AACGUUUUGUGAAGGAGCGCGAAAAGCAGUGAUGUUGCUUACUUACAAUUUAGAUUUAACACGCAGGUAGGUCGCACAAUACGUA [JR_SSArginiB_Sub016]	252 nM	225 nM	266 nM	259 nM	219 nM
